These results are taken from patent US20200002436A1 (DRAGONFLY THERAPEUTICS, published 2020).

Positions count from the first letter of the chain named.

First the molecules themselves.
T1: cynomolgus recombinant NKG2D-Fc (cynomolgus; human, UniProt P61252 73-216)
T1 construct: extracellular domain; also called cynomolgus NKG2D-Fc; not shown: human IgG1 Fc domain
T1 sequence (looked up): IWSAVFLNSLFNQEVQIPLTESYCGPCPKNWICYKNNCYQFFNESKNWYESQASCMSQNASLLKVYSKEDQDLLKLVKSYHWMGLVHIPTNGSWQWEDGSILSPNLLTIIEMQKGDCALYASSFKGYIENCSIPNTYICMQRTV

T2: mouse recombinant NKG2D-Fc (mouse; human, UniProt O54709 90-232)
T2 construct: extracellular domain; also called recombinant mouse NKG2D-Fc; Mouse NKG2D-Fc-biotin; not shown: human IgG1 Fc domain
T2 sequence (looked up): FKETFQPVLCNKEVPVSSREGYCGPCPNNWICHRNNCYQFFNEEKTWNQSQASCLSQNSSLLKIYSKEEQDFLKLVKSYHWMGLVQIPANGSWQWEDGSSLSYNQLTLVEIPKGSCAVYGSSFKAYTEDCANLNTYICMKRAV

T3: human recombinant NKG2D-Fc (human, UniProt P26718 73-216)
T3 construct: extracellular domain; also called recombinant human NKG2D-Fc; NKG2D-Fc fusion protein; not shown: human IgG1 Fc domain
T3 sequence (looked up): T1 sequence (looked up) with N43D, I133T

B1: ADI-29426 (antibody, V domains shown)
VH: QVQLQQWGAGLLKPSETLSLTCAVYGGSFSGYYWSWIRQPPGKGLEWIGEIDHSGSTNYNPSLKSRVTISVDTSKNQFSLKLSSVTAADTAVYYCARARGPWSFDPWGQGTLVTVSS
VL: DIQMTQSPSTLSASVGDRVTITCRASQSIGSWLAWYQQKPGKAPKLLIYKASSLESGVPSRFSGSGSGTEFTLTISSLQPDDFATYYCQQYHSFPTFGGGTKVEIK
B2: ADI-27724 (antibody, V domains shown)
VH: B1 VH
VL: not shown
B3: ADI-29447 (antibody, V domains shown)
VH: B1 VH
VL: B1 VL with G30S, H92D, S93T, P95I
notes: also called F47

The target of the first test is T1, cynomolgus recombinant NKG2D-Fc. As to the kind of experiment: ELISA on coated NKG2D-Fc. (ELISA stands for enzyme-linked immunosorbent assay.)
Source text: (§1) The nucleic acid sequences of human, mouse or cynomolgus NKG2D ectodomains were fused with nucleic acid sequences encoding human IgG1 Fc domains and introduced into mammalian cells to be expressed. After purification, NKG2D-Fc fusion proteins were adsorbed to wells of microplates. After blocking the wells with bovine serum albumin to prevent non-specific binding, NKG2D-binding domains were titrated and added to the wells pre-adsorbed with NKG2D-Fc fusion proteins. Primary antibody binding was detected using a secondary antibody which was conjugated to horseradish peroxidase and specifically recognizes a human kappa light chain to avoid Fc cross-reactivity. 3,3′,5,5′-Tetramethylbenzidine (TMB), a substrate for horseradish peroxidase, was added to the wells to visualize the binding signal, whose absorbance was measured at 450 nm and corrected at 540 nM.
As to B1, the binding result is recorded as “binds”.

As to B2, the binding result is on record as “binds”.

With B3, the binding result was “binds”.

The target in another test is T2, mouse recombinant NKG2D-Fc. As to the kind of experiment: ELISA on coated NKG2D-Fc.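 Note: titrated NKG2D binders added to plates coated with human, mouse or cynomolgus NKG2D ectodomain–human IgG1 Fc fusions, detected by HRP anti-human kappa antibody with TMB, absorbance at 450 nm.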
Source text: as §1
For the molecule B1, the binding result is given as “binds”.

Consider B2, for which the binding result is listed as “binds”.

Regarding B3, the binding result is “binds”.

A further test addresses T3, human recombinant NKG2D-Fc. In words: ELISA on coated NKG2D-Fc.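 Note: titrated NKG2D binders added to plates coated with human, mouse or cynomolgus NKG2D ectodomain–human IgG1 Fc fusions, detected by HRP anti-human kappa antibody with TMB, absorbance at 450 nm.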
Source text: as §1
B1: the binding result was “binds”.

On to B2, for which the binding result is “binds”.

For the molecule B3, the binding result is given as “binds”.
